From paper PMC5668902

Substrate: O=C(O)C(=O)O
Assay: purified protein
Details: pH 4.2 acetate buffer, 25 °C, free enzyme, not immobilised

B1: Oxalate decarboxylase (OxDC), wild type, His6-tagged (Bacillus subtilis subsp. subtilis str. 168) (protein)
chain: MKKQNDIPQPIRGDKGATVKIPRNIERDRQNPDMLVPPETDHGTVSNMKFSFSDTHNRLEKGGYAREVTVRELPISENLASVNMRLKPGAIRELHWHKEAEWAYMIYGSARVTIVDEKGRSFIDDVGEGDLWYFPSGLPHSIQALEEGAEFLLVFDDGSFSENSTFQLTDWLAHTPKEVIAANFGVTKEEISNLPGKEKYIFENQLPGSLKDDIVEGPNGEVPYPFTYRLLEQEPIESEGGKVYIADSTNFKVSKTIASALVTVEPGAMRELHWHPNTHEWQYYISGKARMTVFASDGHARTFNYQAGDVGYVPFAMGHYVENIGDEPLVFLEIFKDDHYADVSLNQWLAMLPETFVQAHLDLGKDFTDVLSKEKHPVVKKKCSK
- Km: 12 ± 3 mM
- kcat: 158 ± 13 s⁻¹
- kcat/Km: 13000 ± 3000 M⁻¹ s⁻¹
